# From patent publication US20030143656
# Changes are numbered by the printed parent chain. In names and notes the source's numbering stands.
# B1: GST-PDK1 (wild type) (protein)
# chain: MARTTSQLYDAVPIQSSVVLCSCPSPSMVRTQTESSTPPGIPGGSRQGPAMDGTAAEPRPGAGSLQHAQPPPQPRKKRPEDFKFGKILGEGSFSTVVLARELATSREYAIKILEKRHIIKENKVPYVTRERDVMSRLDHPFFVKLYFTFQDDEKLYFGLSYAKNGELLKYIRKIGSFDETCTRFYTAEIVSALEYLHGKGIIHRDLKPENILLNEDMHIQITDFGTAKVLSPESKQARANSFVGTAQYVSPELLTEKSACKSSDLWALGCIIYQLVAGLPPFRAGNEYLIFQKIIKLEYDFPEKFFPKARDLVEKLLVLDATKRLGCEEMEGYGPLKAHPFFESVTWENLHQQTPPKLTAYLPAMSEDDEDCYGNYDNLLSQFGCMQVSSSSSSHSLSASDTGLPQRSGSNIEQYIHDLDSNSFELDLQFSEDEKRLLLEKQAGGNPWHQFVENNLILKMGPVDKRKGLFARRRQLLLTEGPHLYYVDPVNKVLKGEIPWSQELRPEAKNFKTFFVHTPNRTYYLMDPSGNAHKWCRKIQEVWRQRYQSHPDAAVQ
# B2: GST-PDK1 L155E (protein)
# chain: B1 chain with L155E
# B3: His-PDK1 (protein)
# chain: DGTAAEPRPGAGSLQHAQPPPQPRKKRPEDFKFGKILGEGSFSTVVLARELATSREYAIKILEKRHIIKENKVPYVTRERDVMSRLDHPFFVKLYFTFQDDEKLYFGLSYAKNGELLKYIRKIGSFDETCTRFYTAEIVSALEYLHGKGIIHRDLKPENILLNEDMHIQITDFGTAKVLSPESKQARANSFVGTAQYVSPELLTEKSACKSSDLWALGCIIYQLVAGLPPFRAGNEYLIFQKIIKLEYDFPEKFFPKARDLVEKLLVLDATKRLGCEEMEGYGPLKAHPFFESVTWENLHQQTPPKLTAYLPAMSEDDEDCYGNYDNLLSQFGCMQVSSSSSSHSLSASDTGLPQRSGSNIEQYIHDLDSNSFELDLQFSEDEKRLLLEKQAGGNPWHQFVENNLILKMGPVDKRKGLFARRRQLLLTEGPHLYYVDPVNKVLKGEIPWSQELRPEAKNFKTFFVHTPNRTYYLMDPSGNAHKWCRKIQEVWRQRYQSHPDAAVQ
# Columns and labels:
# [1] = target: T1, GST-SGK1 (lacking the N-terminal 60 amino acids), O00141
# T1 chain: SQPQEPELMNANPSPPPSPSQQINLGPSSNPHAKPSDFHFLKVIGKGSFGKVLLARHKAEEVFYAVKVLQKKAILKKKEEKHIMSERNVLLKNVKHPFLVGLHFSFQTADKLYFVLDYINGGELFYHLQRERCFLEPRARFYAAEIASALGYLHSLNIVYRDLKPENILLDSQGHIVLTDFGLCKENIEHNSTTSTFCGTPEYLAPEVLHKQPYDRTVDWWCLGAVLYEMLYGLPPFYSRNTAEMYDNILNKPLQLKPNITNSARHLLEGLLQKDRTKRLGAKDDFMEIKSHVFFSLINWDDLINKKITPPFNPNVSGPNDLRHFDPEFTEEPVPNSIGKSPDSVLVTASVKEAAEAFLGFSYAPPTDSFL
# [2] = target: T2, GST-?PH-PKBα[F472A], P31749
# T2 chain: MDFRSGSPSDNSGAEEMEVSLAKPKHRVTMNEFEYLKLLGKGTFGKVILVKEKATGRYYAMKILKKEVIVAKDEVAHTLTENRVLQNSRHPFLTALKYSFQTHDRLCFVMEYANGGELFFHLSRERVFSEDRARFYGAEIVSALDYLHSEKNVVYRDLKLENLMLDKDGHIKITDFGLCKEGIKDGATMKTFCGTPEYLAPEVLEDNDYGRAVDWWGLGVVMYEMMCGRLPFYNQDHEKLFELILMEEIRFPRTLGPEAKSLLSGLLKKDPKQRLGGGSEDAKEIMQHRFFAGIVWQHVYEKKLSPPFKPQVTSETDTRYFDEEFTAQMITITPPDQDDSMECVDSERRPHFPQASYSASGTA
# GST-?PH-PKBα, P31749 = target: T3, GST-?PH-PKBα, P31749
# T3 chain: T2 chain with A355F
# PIFtide = target: T4, PIFtide
# T4 chain: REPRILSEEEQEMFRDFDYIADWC
# [3] = target: GST-S6K1-T2[F411A], P23443
# Sequence of GST-S6K1-T2[F411A], P23443 (P23443 1-421 F411A): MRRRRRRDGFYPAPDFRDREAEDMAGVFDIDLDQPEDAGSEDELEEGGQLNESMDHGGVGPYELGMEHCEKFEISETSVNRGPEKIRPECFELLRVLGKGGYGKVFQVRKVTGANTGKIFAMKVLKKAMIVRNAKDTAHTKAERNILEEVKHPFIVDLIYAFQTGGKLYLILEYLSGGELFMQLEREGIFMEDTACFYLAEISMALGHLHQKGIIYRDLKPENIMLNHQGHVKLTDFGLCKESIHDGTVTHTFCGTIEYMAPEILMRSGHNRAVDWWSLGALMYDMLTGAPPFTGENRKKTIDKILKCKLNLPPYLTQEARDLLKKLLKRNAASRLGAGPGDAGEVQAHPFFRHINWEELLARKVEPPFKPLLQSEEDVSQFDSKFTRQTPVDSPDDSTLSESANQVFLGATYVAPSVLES
# SGK1[F421A], O00141 = target: T5, SGK1[F421A], O00141
# T5 chain: T1 chain with F361A
# [4] = target: 412E-p70 S6K-T2 (His-tagged, insect cells), P23443
# Sequence of 412E-p70 S6K-T2 (His-tagged, insect cells), P23443 (P23443 whole entry, looked up): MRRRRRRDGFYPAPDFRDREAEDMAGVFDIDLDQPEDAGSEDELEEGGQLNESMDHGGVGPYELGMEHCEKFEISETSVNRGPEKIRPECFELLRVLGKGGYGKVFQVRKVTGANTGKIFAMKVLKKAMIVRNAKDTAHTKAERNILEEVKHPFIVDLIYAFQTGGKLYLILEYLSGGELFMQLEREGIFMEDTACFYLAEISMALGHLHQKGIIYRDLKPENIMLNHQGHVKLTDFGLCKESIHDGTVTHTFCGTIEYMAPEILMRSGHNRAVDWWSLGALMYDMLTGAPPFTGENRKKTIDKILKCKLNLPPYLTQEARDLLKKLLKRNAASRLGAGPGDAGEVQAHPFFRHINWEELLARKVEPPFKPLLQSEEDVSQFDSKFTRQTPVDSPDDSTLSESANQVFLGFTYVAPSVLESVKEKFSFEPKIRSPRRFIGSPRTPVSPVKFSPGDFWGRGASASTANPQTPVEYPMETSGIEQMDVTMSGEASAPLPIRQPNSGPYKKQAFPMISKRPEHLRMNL
# D978A-PIFtide = target: T6, D978A-PIFtide
# T6 chain: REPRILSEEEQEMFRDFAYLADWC
# [5] = target: GST-SGK1[T422D] (lacking the N-terminal 60 amino acids), O00141
# [6] = target: p70 S6K-T2 (His-tagged, insect cells), P23443
# Sequence of p70 S6K-T2 (His-tagged, insect cells), P23443 (P23443 whole entry, looked up): as the sequence (P23443 whole entry, looked up) above
# [7] = target: T7, GST-?PH-PKBα[S473D], P31749
# T7 chain: T2 chain with A355F, S356D
# T308tide = target: T8, T308tide
# T8 chain: KTFCGTPEYLAPEVRR
# Sequence of GST-FL-PKB 473D, P31749 (P31749 other isoform, or with tags, fused parts or gaps): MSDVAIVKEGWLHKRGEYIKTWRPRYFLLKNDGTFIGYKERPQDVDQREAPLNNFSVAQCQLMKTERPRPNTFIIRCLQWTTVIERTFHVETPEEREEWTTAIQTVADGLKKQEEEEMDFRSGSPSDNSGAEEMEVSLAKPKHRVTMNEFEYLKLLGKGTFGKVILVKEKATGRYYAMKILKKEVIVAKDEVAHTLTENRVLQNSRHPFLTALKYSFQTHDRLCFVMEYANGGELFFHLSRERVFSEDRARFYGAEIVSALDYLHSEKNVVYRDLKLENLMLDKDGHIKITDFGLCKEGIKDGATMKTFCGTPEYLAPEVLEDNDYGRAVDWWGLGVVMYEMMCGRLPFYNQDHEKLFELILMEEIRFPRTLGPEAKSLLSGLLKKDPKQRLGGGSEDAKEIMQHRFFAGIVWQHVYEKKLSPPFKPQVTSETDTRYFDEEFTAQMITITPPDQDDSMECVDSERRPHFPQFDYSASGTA
# Sequence of GST-PKBα[F472A], P31749 (P31749 whole entry F472A): as the sequence (P31749 other isoform, or with tags, fused parts or gaps) above, with F472A, D473S counted along it
# Sequence of PDKtide (chain, as listed by the source): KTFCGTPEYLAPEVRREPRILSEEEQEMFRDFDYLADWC
protein,measurement,setting,value
B1,"relative phosphorylation of the substrate by PDK1-wt, +PIFtide (relative, PKB[S473D]=100)",[1],3.8
same,"relative phosphorylation of the substrate by PDK1-wt, no PIFtide (relative, PKB[S473D]=100)",[1],8
same,rate of phosphorylation by PDK1 compared to the wild type enzyme,[2],markedly reduced
same,rate of phosphorylation by PDK1 compared to the wild type enzyme,"GST-PKBα[F472A], P31749",PKB[F472A] was phosphorylated at a similar rate to the wild type PKB
same,"relative phosphorylation of the substrate by PDK1-wt, +PIFtide (relative, PKB[S473D]=100)","GST-?PH-PKBα, P31749",0.25
same,"relative phosphorylation of the substrate by PDK1-wt, no PIFtide (relative, PKB[S473D]=100)","GST-?PH-PKBα, P31749",0.4
same,concentration needed to obtain 50% activation of PDK1 (T308tide as substrate),PIFtide,0.14 µM for wt-PIFtide
same,phosphorylation of p70 S6K at Thr412 by PDK1 (T412-P immunoblot),PIFtide,The 24 residue PIF peptide prevented PDK1 from phosphorylating the p70 S6K at Thr412
same,rate of phosphorylation by PDK1 compared to the wild type enzyme,[3],markedly reduced
same,rate of phosphorylation by PDK1 compared to the wild type enzyme,"SGK1[F421A], O00141",markedly reduced
same,"relative phosphorylation of the substrate by PDK1-wt, +PIFtide (relative, PKB[S473D]=100)",[4],7.4
same,"relative phosphorylation of the substrate by PDK1-wt, no PIFtide (relative, PKB[S473D]=100)",[4],54
same,concentration needed to obtain 50% activation of PDK1 (T308tide as substrate),D978A-PIFtide,1.1 µM for D978A-PIFtide
same,"relative phosphorylation of the substrate by PDK1-wt, +PIFtide (relative, PKB[S473D]=100)",[5],9.6
same,"relative phosphorylation of the substrate by PDK1-wt, no PIFtide (relative, PKB[S473D]=100)",[5],71
same,"relative phosphorylation of the substrate by PDK1-wt, +PIFtide (relative, PKB[S473D]=100)","GST-FL-PKB, P31749",19.3
same,"relative phosphorylation of the substrate by PDK1-wt, no PIFtide (relative, PKB[S473D]=100)","GST-FL-PKB, P31749",28
same,"relative phosphorylation of the substrate by PDK1-wt, +PIFtide (relative, PKB[S473D]=100)",[6],0.58
same,"relative phosphorylation of the substrate by PDK1-wt, no PIFtide (relative, PKB[S473D]=100)",[6],10.4
same,"relative phosphorylation of the substrate by PDK1-wt, +PIFtide (relative, PKB[S473D]=100)",[7],0.2
same,"relative phosphorylation of the substrate by PDK1-wt, no PIFtide (relative, PKB[S473D]=100)",[7],0.9
same,"relative phosphorylation of the substrate by PDK1-wt, +PIFtide (relative, PKB[S473D]=100)","GST-FL-PKB 473D, P31749",85.4
same,"relative phosphorylation of the substrate by PDK1-wt, no PIFtide (relative, PKB[S473D]=100)","GST-FL-PKB 473D, P31749",100
B2,"relative phosphorylation of the substrate by PDK1-L155E, +PIFtide (relative, PKB[S473D]=100)",[1],2.4
same,"relative phosphorylation of the substrate by PDK1-L155E, no PIFtide (relative, PKB[S473D]=100)",[1],3.3
same,"relative phosphorylation of the substrate by PDK1-L155E, +PIFtide (relative, PKB[S473D]=100)","GST-?PH-PKBα, P31749",0.25
same,"relative phosphorylation of the substrate by PDK1-L155E, no PIFtide (relative, PKB[S473D]=100)","GST-?PH-PKBα, P31749",0.23
same,"relative phosphorylation of the substrate by PDK1-L155E, +PIFtide (relative, PKB[S473D]=100)",[4],0.108
same,"relative phosphorylation of the substrate by PDK1-L155E, no PIFtide (relative, PKB[S473D]=100)",[4],0.5
same,"relative phosphorylation of the substrate by PDK1-L155E, +PIFtide (relative, PKB[S473D]=100)",[5],3.4
same,"relative phosphorylation of the substrate by PDK1-L155E, no PIFtide (relative, PKB[S473D]=100)",[5],3.5
same,"relative phosphorylation of the substrate by PDK1-L155E, +PIFtide (relative, PKB[S473D]=100)","GST-FL-PKB, P31749",35
same,"relative phosphorylation of the substrate by PDK1-L155E, no PIFtide (relative, PKB[S473D]=100)","GST-FL-PKB, P31749",35
same,"relative phosphorylation of the substrate by PDK1-L155E, +PIFtide (relative, PKB[S473D]=100)",[6],0.27
same,"relative phosphorylation of the substrate by PDK1-L155E, no PIFtide (relative, PKB[S473D]=100)",[6],0.6
same,"relative phosphorylation of the substrate by PDK1-L155E, +PIFtide (relative, PKB[S473D]=100)",[7],0.15
same,"relative phosphorylation of the substrate by PDK1-L155E, no PIFtide (relative, PKB[S473D]=100)",[7],0.18
same,"relative phosphorylation of the substrate by PDK1-L155E, +PIFtide (relative, PKB[S473D]=100)","GST-FL-PKB 473D, P31749",162
same,"relative phosphorylation of the substrate by PDK1-L155E, no PIFtide (relative, PKB[S473D]=100)","GST-FL-PKB 473D, P31749",178
B3,"rate of phosphorylation at 100 µM, against T308tide",PDKtide,phosphorylated at a rate over 100-fold greater than that using T308tide
same,Km of PDK1 for the peptide substrate,T308tide,the Km was very high (>10 mM)
